For 60 sequences, binding signal (PBM E-score (-0.5 to 0.5)) results are on record in paper PMC4434323.

In data set [1] the test system is T1, ztf-14 (M163.2) (Caenorhabditis elegans).
T1 sequence: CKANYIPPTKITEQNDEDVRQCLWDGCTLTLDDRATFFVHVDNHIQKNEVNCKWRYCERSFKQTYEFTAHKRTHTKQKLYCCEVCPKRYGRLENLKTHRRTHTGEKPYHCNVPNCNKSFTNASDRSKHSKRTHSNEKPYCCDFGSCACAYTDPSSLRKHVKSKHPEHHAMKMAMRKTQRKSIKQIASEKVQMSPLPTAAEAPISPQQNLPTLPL

Data set [2] concerns the target T2, Y61A9LA.9 (Y61A9LA.9) (Caenorhabditis elegans) (UniProt Q9N312).
T2 sequence: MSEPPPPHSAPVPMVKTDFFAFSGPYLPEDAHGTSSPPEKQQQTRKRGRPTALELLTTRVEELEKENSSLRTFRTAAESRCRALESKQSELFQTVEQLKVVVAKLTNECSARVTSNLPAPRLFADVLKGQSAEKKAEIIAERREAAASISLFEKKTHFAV

Data set [3] has as its target T3, pax-2 (K06B9.5) (Caenorhabditis elegans) (UniProt Q21263).
T3 sequence: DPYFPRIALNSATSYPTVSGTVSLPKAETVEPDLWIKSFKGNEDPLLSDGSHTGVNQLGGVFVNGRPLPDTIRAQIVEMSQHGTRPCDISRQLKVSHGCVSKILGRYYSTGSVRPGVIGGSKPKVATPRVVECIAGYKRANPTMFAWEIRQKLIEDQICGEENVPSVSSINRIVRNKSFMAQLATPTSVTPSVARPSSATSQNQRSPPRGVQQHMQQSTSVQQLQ

In data set [4] the target is T4, ceh-52 (C07E3.5) (Caenorhabditis elegans) (UniProt Q17788).
T4 sequence: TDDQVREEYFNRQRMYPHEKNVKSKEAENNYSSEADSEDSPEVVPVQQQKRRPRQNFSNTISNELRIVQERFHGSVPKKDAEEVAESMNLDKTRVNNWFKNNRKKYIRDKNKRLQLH

Data set [5] concerns the target T5, Y75B8A.6 (Y75B8A.6) (Caenorhabditis elegans) (UniProt A0A168H365).
T5 sequence: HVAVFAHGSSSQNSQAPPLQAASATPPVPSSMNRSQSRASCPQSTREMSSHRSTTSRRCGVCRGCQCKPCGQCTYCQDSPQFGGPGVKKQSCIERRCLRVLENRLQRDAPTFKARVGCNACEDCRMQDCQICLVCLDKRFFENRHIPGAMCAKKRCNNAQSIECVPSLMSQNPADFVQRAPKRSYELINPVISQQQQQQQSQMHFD

Data set [6] deals with T6, Y44A6D.3 (Y44A6D.3) (Caenorhabditis elegans) (UniProt Q9XXE0).
T6 sequence: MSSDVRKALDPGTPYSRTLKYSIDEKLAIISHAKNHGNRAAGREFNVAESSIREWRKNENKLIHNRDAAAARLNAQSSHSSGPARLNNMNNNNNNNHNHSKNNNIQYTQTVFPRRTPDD

The target in data set [7] is T7, tbx-43 (Y46E12A.4) (Caenorhabditis elegans) (UniProt Q1T6W8).
T7 sequence: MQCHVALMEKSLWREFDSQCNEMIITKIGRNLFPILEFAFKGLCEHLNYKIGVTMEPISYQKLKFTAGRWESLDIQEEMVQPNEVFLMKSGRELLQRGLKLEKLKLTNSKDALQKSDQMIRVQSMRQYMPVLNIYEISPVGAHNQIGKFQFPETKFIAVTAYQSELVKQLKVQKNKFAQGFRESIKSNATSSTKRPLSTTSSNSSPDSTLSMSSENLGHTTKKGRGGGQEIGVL

Data set [8] addresses T8, tbx-38 (C24H11.3) (Caenorhabditis elegans) (UniProt Q9XVD5).
T8 sequence: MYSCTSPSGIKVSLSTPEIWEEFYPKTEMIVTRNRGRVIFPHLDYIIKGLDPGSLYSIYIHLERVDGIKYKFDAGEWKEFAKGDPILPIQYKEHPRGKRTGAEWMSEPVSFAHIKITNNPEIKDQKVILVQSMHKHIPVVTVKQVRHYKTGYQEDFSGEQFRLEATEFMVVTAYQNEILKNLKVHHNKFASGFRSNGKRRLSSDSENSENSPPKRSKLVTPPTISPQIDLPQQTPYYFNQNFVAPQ

Data set [9] deals with T9, efl-2 (Y48C3A.17) (Caenorhabditis elegans) (UniProt A5HWA8).
T9 sequence: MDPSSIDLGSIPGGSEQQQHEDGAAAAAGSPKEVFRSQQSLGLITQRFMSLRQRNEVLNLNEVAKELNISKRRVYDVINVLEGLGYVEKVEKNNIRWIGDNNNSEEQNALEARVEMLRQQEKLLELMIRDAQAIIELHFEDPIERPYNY

For “GACCACCA (double strand) [8-mer GACCACCA]”, in [1], the binding signal (PBM E-score (-0.5 to 0.5)) worked out at 0.454.
On the same count and under the same terms, the value for “GACCACCC (double strand) [8-mer GACCACCC]” was 0.499.
In the case of “TAAAATAA (double strand) [8-mer TAAAATAA]”, the binding signal (PBM E-score (-0.5 to 0.5)) in data set [2] is 0.453.
In the case of “ACCATGAC (double strand) [8-mer ACCATGAC]”, the binding signal (PBM E-score (-0.5 to 0.5)) in data set [3] is 0.454.
The same measure, in the same setting: the value for “GGCGTGAC (double strand) [8-mer GGCGTGAC]” was 0.468.
“AGAGTTAA (double strand) [8-mer AGAGTTAA]” returned a binding signal (PBM E-score (-0.5 to 0.5)) in data set [4] of 0.452.
In data set [3], “CCGTGACC (double strand) [8-mer CCGTGACC]” yielded a binding signal (PBM E-score (-0.5 to 0.5)) of 0.484.
For “AGGCCACC (double strand) [8-mer AGGCCACC]”, the binding signal (PBM E-score (-0.5 to 0.5)) in data set [1] was found to be 0.453.
For the sequence “CGCGGAAA (double strand) [8-mer CGCGGAAA]”, the binding signal (PBM E-score (-0.5 to 0.5)) in data set [5] was determined as 0.457.
Take “AGTGTTAT (double strand) [8-mer AGTGTTAT]”: the binding signal (PBM E-score (-0.5 to 0.5)) in [4] was found to be 0.454.
Consider “CCGCGGAA (double strand) [8-mer CCGCGGAA]”, for which, in data set [5], the binding signal (PBM E-score (-0.5 to 0.5)) was found to be 0.468.
Sequence “CGTGACGA (double strand) [8-mer CGTGACGA]” gave a binding signal (PBM E-score (-0.5 to 0.5)) in [3] of 0.461.
For the sequence “GGGGTTAA (double strand) [8-mer GGGGTTAA]”, in [4], the binding signal (PBM E-score (-0.5 to 0.5)) stood at 0.454.
In [5], “CGCGCGGC (double strand) [8-mer CGCGCGGC]” showed a binding signal (PBM E-score (-0.5 to 0.5)) of 0.451.
For the sequence “CCGCGCGG (double strand) [8-mer CCGCGCGG]”, the binding signal (PBM E-score (-0.5 to 0.5)) in data set [6] stood at 0.495; in data set [5], 0.465.
Sequence “GAGTTATA (double strand) [8-mer GAGTTATA]” returned a binding signal (PBM E-score (-0.5 to 0.5)) in [4] of 0.465.
Take “TCCGCGGA (double strand) [8-mer TCCGCGGA]”: the binding signal (PBM E-score (-0.5 to 0.5)) in data set [5] came to 0.471.
Consider “AAATAATT (double strand) [8-mer AAATAATT]”, for which the binding signal (PBM E-score (-0.5 to 0.5)) in [2] was determined as 0.457.
Take “ACCACCCA (double strand) [8-mer ACCACCCA]”: in data set [1], the binding signal (PBM E-score (-0.5 to 0.5)) worked out at 0.469.
Sequence “GACCACAC (double strand) [8-mer GACCACAC]” showed a binding signal (PBM E-score (-0.5 to 0.5)) in data set [1] of 0.488.
“CGTCACGC (double strand) [8-mer CGTCACGC]” displayed a binding signal (PBM E-score (-0.5 to 0.5)) in data set [3] of 0.488.
In data set [2], “AATAATAA (double strand) [8-mer AATAATAA]” came in with a binding signal (PBM E-score (-0.5 to 0.5)) of 0.461.
“GGTGTTAA (double strand) [8-mer GGTGTTAA]”: the binding signal (PBM E-score (-0.5 to 0.5)) was found to be 0.492 in data set [7], 0.459 in data set [4] and 0.488 in data set [8].
With “ATGGGTGG (double strand) [8-mer ATGGGTGG]”, the binding signal (PBM E-score (-0.5 to 0.5)) in data set [1] came out at 0.452.
“GCGTGACC (double strand) [8-mer GCGTGACC]”: in [3], the binding signal (PBM E-score (-0.5 to 0.5)) was 0.486.
With “ATAACACC (double strand) [8-mer ATAACACC]”, the binding signal (PBM E-score (-0.5 to 0.5)) in data set [4] was 0.457.
In the case of “AAAATAAT (double strand) [8-mer AAAATAAT]”, the binding signal (PBM E-score (-0.5 to 0.5)) in data set [2] was determined as 0.451.
As to “TAACTCTA (double strand) [8-mer TAACTCTA]”, in [4], the binding signal (PBM E-score (-0.5 to 0.5)) amounted to 0.459.
“CCGCGCGC (double strand) [8-mer CCGCGCGC]” yielded a binding signal (PBM E-score (-0.5 to 0.5)) in data set [5] of 0.462.
In the case of “AAGAGTTA (double strand) [8-mer AAGAGTTA]”, the binding signal (PBM E-score (-0.5 to 0.5)) in data set [4] worked out at 0.463.
For the sequence “AGCGTGAC (double strand) [8-mer AGCGTGAC]”, in [3], the binding signal (PBM E-score (-0.5 to 0.5)) was 0.488.
For “GGAGTTAA (double strand) [8-mer GGAGTTAA]”, the binding signal (PBM E-score (-0.5 to 0.5)) in [4] came to 0.464.
“GGGAGTTA (double strand) [8-mer GGGAGTTA]”: in data set [4], the binding signal (PBM E-score (-0.5 to 0.5)) is 0.459.
In data set [3], “GTCACGGA (double strand) [8-mer GTCACGGA]” showed a binding signal (PBM E-score (-0.5 to 0.5)) of 0.453.
Turning to “AGGGTAAA (double strand) [8-mer AGGGTAAA]”, the binding signal (PBM E-score (-0.5 to 0.5)) in data set [1] is 0.46.
“AATATATT (double strand) [8-mer AATATATT]” registered a binding signal (PBM E-score (-0.5 to 0.5)) in [2] of 0.465.
Turning to “GCGCGCGC (double strand) [8-mer GCGCGCGC]”, the binding signal (PBM E-score (-0.5 to 0.5)) in [9] turned out to be 0.495; in [5], 0.465.
The sequence “ACCGTGAC (double strand) [8-mer ACCGTGAC]” came in with a binding signal (PBM E-score (-0.5 to 0.5)) in data set [3] of 0.495.
Still for that read-out and setting: the value for “CGGTCACG (double strand) [8-mer CGGTCACG]” was 0.473.
As to “CCGCGGGA (double strand) [8-mer CCGCGGGA]”, the binding signal (PBM E-score (-0.5 to 0.5)) in data set [5] was determined as 0.458.
Take “CGCGGAAC (double strand) [8-mer CGCGGAAC]”: the binding signal (PBM E-score (-0.5 to 0.5)) in [5] was 0.454.
For “CGCGCGCG (double strand) [8-mer CGCGCGCG]”, the binding signal (PBM E-score (-0.5 to 0.5)) came out at 0.494 in data set [9] and 0.476 in [5].
In [1], “AGGTGGTC (double strand) [8-mer AGGTGGTC]” had a binding signal (PBM E-score (-0.5 to 0.5)) of 0.475.
In the case of “GCGCGCAA (double strand) [8-mer GCGCGCAA]”, the binding signal (PBM E-score (-0.5 to 0.5)) in data set [5] is 0.458.
In turn, “GGCCACCC (double strand) [8-mer GGCCACCC]” showed a binding signal (PBM E-score (-0.5 to 0.5)) in [1] of 0.494.
With “CCGTGACG (double strand) [8-mer CCGTGACG]”, the binding signal (PBM E-score (-0.5 to 0.5)) in data set [3] turned out to be 0.489.
“AGACCACC (double strand) [8-mer AGACCACC]”: the binding signal (PBM E-score (-0.5 to 0.5)) in [1] came to 0.494.
“CCCGCGGG (double strand) [8-mer CCCGCGGG]” displayed a binding signal (PBM E-score (-0.5 to 0.5)) in data set [5] of 0.451.
Same read-out and setting: the value for “CGCGGCGC (double strand) [8-mer CGCGGCGC]” was 0.461.
For the sequence “AGAGTTAT (double strand) [8-mer AGAGTTAT]”, the binding signal (PBM E-score (-0.5 to 0.5)) in data set [4] amounted to 0.481.
As to “GACCTCCC (double strand) [8-mer GACCTCCC]”, the binding signal (PBM E-score (-0.5 to 0.5)) in [1] came to 0.479.
Sequence “AAATAAAT (double strand) [8-mer AAATAAAT]” registered a binding signal (PBM E-score (-0.5 to 0.5)) in [2] of 0.452.
Turning to “AATATTAA (double strand) [8-mer AATATTAA]”, the binding signal (PBM E-score (-0.5 to 0.5)) in data set [2] came out at 0.455.
The sequence “GTCACGCA (double strand) [8-mer GTCACGCA]” came in with a binding signal (PBM E-score (-0.5 to 0.5)) in data set [3] of 0.481.
The sequence “ATAACTCC (double strand) [8-mer ATAACTCC]” returned a binding signal (PBM E-score (-0.5 to 0.5)) in data set [4] of 0.482.
As to “CGTGACCA (double strand) [8-mer CGTGACCA]”, the binding signal (PBM E-score (-0.5 to 0.5)) in data set [3] turned out to be 0.479.
In data set [1], “ACCACCCT (double strand) [8-mer ACCACCCT]” yielded a binding signal (PBM E-score (-0.5 to 0.5)) of 0.463.
With “GACCCCCC (double strand) [8-mer GACCCCCC]”, the binding signal (PBM E-score (-0.5 to 0.5)) in data set [1] was 0.478.
“TAACTCCA (double strand) [8-mer TAACTCCA]” displayed a binding signal (PBM E-score (-0.5 to 0.5)) in data set [4] of 0.475.
On to “GGACCACC (double strand) [8-mer GGACCACC]”, for which the binding signal (PBM E-score (-0.5 to 0.5)) in data set [1] was 0.495.
